We go through six molecules from patent US20180030127A1 (APRILBIO, published 2018).

Assay [1] addresses T1, rat serum albumin (rat, UniProt P02770 25-608).
T1 construct: Bought protein; also called RSA; rat SA
As to the kind of experiment: monoclonal phage ELISA at pH 6, antigen coated at 5 ug/ml, anti-human kappa-HRPO, A450. The method, then: (§1) For the monoclonal phage ELISA, the recombinant phage was obtained from positive E. coli clones by phage rescue, and ˜10⁸ CFU/well were added to MaxiSorb ELISA plates (Nunc, Roskilde, Denmark) that were coated with 5 μg/ml HSA, RSA, MSA or BSA. The phage was allowed to bind to the antigens either at pH 6 or at pH 7.4 for 1 h at 37° C. A goat anti-human kappa L Ab-conjugated with HRPO (Sigma-Aldrich) was used as a secondary antibody. The binding signals were visualized with a TMB substrate (BD Science, San Jose, Calif., USA), and the absorbance at 450 nm was measured using an ELISA reader (Bio-Rad, Hercules, Calif., USA). The data represent the average of three experiments standard deviation. For the conventional ELISA, the various antigens [human SA, rat SA, mouse SA, monkey SA (Alpha diagnositic Intl., San Antonio, Tex., USA), canine SA (CUSABIO, Wuhan, Hubei, China). rabbit SA (Sigma-Aldrich), epidermal growth factor receptor (EGFR) (R&D systems, Minneapolis, Minn., USA), epithelial cell adhesion molecule (EpCAM) (R&D systems), IL-15 receptor a (IL-15Ra) (R&D systems), IL-10 (eBioscience, San Diego, Calif., USA), CD16a (R&D systems), c-MET (Sinobiological, Beijing, China)] at 5 μg/ml concentrations were immobilized on the microtiter plates, and the Fab molecules were allowed to bind to the antigens, and detected as above. To determine the concentration of soluble Fab or Fab-hGH fusion proteins, a sandwich ELISA was performed using a mouse anti-human IgG Fd mAb (AprilBio) as a capturing Ab and the goat anti-human kappa L chain pAb-HRPO conjugated (Sigma-Aldrich) as a detecting antibody. The human Fab fragment (Bethyl, Montgomery, Tex., USA) with a known concentration was used to draw the standard curve. For detecting the hGH domain, T-20, a goat pAb specific for the C-terminus of the hGH (Santacruz Biotechnology, Dallas, Tex., USA) and NYThGH, a mouse mAb specific for full-length hGH (Prospec, East Brunswick, N.J., USA) were used followed by a rabbit anti-goat IgG pAb-HRPO conjugated (Sigma-Aldrich) or a goat anti-mouse IgG pAb-HRPO conjugated (Sigma-Aldrich), respectively as a secondary antibody. A goat anti-human GCSF pAb (R&D Systems) was used to detecting the G-CSF domain, and a rabbit anti-human IFN-β pAb (PEPROTECH, Rocky Hill, USA) was used to detect the IFN-β domain.

Assay [2] has as its target T2, mouse serum albumin (mouse, UniProt P07724 25-608).
T2 construct: Bought protein; also called MSA; mouse SA
The description is as above. The method, then:
as §1

Assay [3] concerns the target T3, bovine serum albumin (bovine, UniProt P02769 25-607).
T3 construct: also called BSA; bovine SA
Described as above. How it is done:
as §1

Assay [4] addresses T4, human serum albumin (human, UniProt P02768 25-609).
T4 construct: Bought protein; also called HSA; human SA
As to the kind of experiment: monoclonal phage ELISA at pH 7.4: Fab on phage, about 10^8 CFU/well, on antigen coated at 5 ug/ml; anti-human kappa-HRPO, TMB, A450. How it is done: as §1
(In an ELISA, binding on a coated surface is turned into a signal by an enzyme label.)

The target of assay [5] is T1, rat serum albumin. As to the kind of experiment: monoclonal phage ELISA at pH 7.4, antigen coated at 5 ug/ml, anti-human kappa-HRPO, A450. The method, then: as §1
Assay [6] concerns the target T2, mouse serum albumin. The description is as above. How it is done: as §1
Assay [7] deals with T1, rat serum albumin. As to the kind of experiment: monoclonal phage ELISA at pH 7.4: Fab on phage, about 10^8 CFU/well, on antigen coated at 5 ug/ml; anti-human kappa-HRPO, TMB, A450. The method, then: as §1
The target of assay [8] is T2, mouse serum albumin. Described as above. The method, then:
as §1

Assay [9] has as its target T4, human serum albumin. As to the kind of experiment: ELISA at pH 6.0: purified soluble Fab titrated on antigen coated at 5 ug/ml; anti-human kappa L chain pAb-HRPO, TMB, A450. How it is done: (§2) For the monoclonal phage ELISA, the recombinant phage was obtained from positive E. coli clones by phage rescue, and ˜10⁸ CFU/well were added to MaxiSorb ELISA plates (Nunc, Roskilde, Denmark) that were coated with 5 μg/ml HSA, RSA, MSA or BSA. The phage was allowed to bind to the antigens either at pH 6 or at pH 7.4 for 1 h at 37° C. A goat anti-human kappa L Ab-conjugated with HRPO (Sigma-Aldrich) was used as a secondary antibody. The binding signals were visualized with a TMB substrate (BD Science, San Jose, Calif., USA), and the absorbance at 450 nm was measured using an ELISA reader (Bio-Rad, Hercules, Calif., USA). The data represent the average of three experiments standard deviation. For the conventional ELISA, the various antigens [human SA, rat SA, mouse SA, monkey SA (Alpha diagnositic Intl., San Antonio, Tex., USA), canine SA (CUSABIO, Wuhan, Hubei, China). rabbit SA (Sigma-Aldrich), epidermal growth factor receptor (EGFR) (R&D systems, Minneapolis, Minn., USA), epithelial cell adhesion molecule (EpCAM) (R&D systems), IL-15 receptor a (IL-15Ra) (R&D systems), IL-10 (eBioscience, San Diego, Calif., USA), CD16a (R&D systems), c-MET (Sinobiological, Beijing, China)] at 5 μg/ml concentrations were immobilized on the microtiter plates, and the Fab molecules were allowed to bind to the antigens, and detected as above. […]

The target of assay [10] is T1, rat serum albumin. The description is as above. The method, then: as §2
Assay [11] concerns the target T4, human serum albumin. As to the kind of experiment: ELISA at pH 7.4: purified soluble Fab titrated on antigen coated at 5 ug/ml; anti-human kappa L chain pAb-HRPO, TMB, A450. The method, then:
as §2

For assay [12], the target named is T1, rat serum albumin. The description is as above. How it is done: as §2
For assay [13], the target named is T2, mouse serum albumin. As to the kind of experiment: monoclonal phage ELISA at pH 6: Fab on phage, about 10^8 CFU/well, on antigen coated at 5 ug/ml; anti-human kappa-HRPO, TMB, A450. The method, then:
as §2

The target in assay [14] is T3, bovine serum albumin. As to the kind of experiment: monoclonal phage ELISA at pH 7.4, antigen coated at 5 ug/ml, anti-human kappa-HRPO, A450. The method, then:
as §1

T1 sequence (P02770 25-608 limits assumed): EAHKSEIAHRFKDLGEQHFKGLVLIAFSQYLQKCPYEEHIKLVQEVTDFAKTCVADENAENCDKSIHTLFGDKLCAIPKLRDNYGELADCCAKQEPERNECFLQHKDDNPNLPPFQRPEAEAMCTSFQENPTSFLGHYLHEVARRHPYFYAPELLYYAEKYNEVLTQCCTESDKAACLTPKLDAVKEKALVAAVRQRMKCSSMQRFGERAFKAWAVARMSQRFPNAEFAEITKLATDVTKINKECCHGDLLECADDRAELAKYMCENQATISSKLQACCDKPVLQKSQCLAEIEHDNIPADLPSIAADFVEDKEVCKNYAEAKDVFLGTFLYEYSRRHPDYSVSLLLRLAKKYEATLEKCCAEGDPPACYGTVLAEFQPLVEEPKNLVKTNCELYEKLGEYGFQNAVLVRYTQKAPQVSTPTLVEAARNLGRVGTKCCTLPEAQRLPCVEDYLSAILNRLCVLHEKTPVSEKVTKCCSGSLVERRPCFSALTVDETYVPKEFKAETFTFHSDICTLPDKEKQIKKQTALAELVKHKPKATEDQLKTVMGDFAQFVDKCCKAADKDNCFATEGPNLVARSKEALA
T3 sequence (P02769 25-607 limits assumed): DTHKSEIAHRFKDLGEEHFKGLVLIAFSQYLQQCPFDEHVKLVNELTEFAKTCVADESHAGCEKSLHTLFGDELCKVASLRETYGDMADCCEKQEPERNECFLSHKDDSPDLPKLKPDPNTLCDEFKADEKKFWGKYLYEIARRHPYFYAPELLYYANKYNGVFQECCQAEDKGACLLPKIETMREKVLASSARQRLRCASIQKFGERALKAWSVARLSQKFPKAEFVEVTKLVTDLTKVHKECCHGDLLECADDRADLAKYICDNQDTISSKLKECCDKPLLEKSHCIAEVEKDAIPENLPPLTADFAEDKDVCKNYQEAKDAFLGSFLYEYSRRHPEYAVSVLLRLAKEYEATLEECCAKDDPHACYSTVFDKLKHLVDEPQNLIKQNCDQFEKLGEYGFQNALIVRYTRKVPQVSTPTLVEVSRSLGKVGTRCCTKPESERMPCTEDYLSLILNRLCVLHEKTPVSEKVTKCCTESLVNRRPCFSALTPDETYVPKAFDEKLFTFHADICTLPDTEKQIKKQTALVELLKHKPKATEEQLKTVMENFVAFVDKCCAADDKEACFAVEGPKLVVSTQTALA
T2 sequence (P07724 25-608 limits assumed): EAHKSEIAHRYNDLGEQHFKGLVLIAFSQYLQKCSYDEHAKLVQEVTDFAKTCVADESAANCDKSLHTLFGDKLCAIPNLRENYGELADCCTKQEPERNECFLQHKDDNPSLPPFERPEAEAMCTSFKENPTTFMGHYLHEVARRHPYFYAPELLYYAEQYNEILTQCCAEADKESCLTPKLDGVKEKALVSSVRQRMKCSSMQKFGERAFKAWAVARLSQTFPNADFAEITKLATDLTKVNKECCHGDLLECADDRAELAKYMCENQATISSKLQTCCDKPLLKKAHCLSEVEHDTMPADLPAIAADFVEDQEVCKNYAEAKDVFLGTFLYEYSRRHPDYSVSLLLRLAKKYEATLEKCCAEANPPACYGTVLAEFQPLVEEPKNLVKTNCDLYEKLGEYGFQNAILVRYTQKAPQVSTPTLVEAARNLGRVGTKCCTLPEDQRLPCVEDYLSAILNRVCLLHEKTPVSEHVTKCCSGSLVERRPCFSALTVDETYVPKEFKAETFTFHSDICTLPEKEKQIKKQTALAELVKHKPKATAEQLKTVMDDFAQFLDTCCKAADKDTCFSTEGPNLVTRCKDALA

B1: SA141 (Fab, V domains shown)
VH: QVQLVQSGGGLVQPGGSLRLSCAASGFTFSSYAMSWVRQAPGKGLEWLSVISHDGGFQYYADSVKGRFTVSRDNSKNTLYLQMNSLRAEDTAVYYCARAGWLRQYGMDVWGQGTLVTVSS
VL: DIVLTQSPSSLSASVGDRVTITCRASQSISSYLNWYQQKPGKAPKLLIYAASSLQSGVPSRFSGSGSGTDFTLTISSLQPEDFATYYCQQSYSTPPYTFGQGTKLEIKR
notes: also called SA141 Fab
For B1, the binding result in the assay with rat serum albumin [1] was “no binding”; with mouse serum albumin [2], “no binding”; with bovine serum albumin [3], “no binding”; in the assay with human serum albumin [4], “binds”.

B2: SA140 (Fab, V domains shown)
VH: QVQLVQSGGGVVQTGGSLRLSCAASGFTFRNYGIHWVRQAPGKGLEWVASISYDGSNKYYADSVKGRFTISRDNSRNTVHVQMDSLRGGDTAVYYCARDVHYYGSGSYYNAFDIWGQGTLVTVSS
VL: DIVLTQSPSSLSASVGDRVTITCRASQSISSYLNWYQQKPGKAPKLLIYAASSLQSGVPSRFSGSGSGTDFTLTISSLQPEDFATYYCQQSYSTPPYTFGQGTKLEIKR
notes: also called SA140 Fab
For B2, the binding result with bovine serum albumin [3], with rat serum albumin [5] and with mouse serum albumin [6] was “no binding” each time.

B3: SL18 (Fab, V domains shown)
VH: EVQLVQSGTEVKKPGESLKISCKISGYSFTAYWIAWVRQMPGKGLEWMGMIWPPDADARYSPSFQGQVTFSVDKSISTAYLQWHSLKTSDTAVYYCARLYSGSYSPWGQGTLVTVSS
VL: ELVLTQSPGTLSLSPGERATLSCRASQSIFNYVAWYQQKPGQAPRLLIYDASNRATGIPARFSGSGSGTDFTLTISSLEPEDFAVYYCQQRSKWPPTWTFGQGTRVDIKR
notes: Human Fab (VH+CH1, VL+CLk); tested on phage and as soluble Fab purified from E. coli; also called SL18 Fab
On to B3, for which the binding result with bovine serum albumin [3] is “no binding”; with human serum albumin [4] it was “binds”; with rat serum albumin [7], “binds”; with mouse serum albumin [8], “binds”.

B4: SL310 (Fab, V domains shown)
VH: QVQLVQSGGGPVKPGGSLRLSCAASGFMFRAYSMNWVRQAPGKGLEWVSSISSSGRYIHYADSVKGRFTISRDNAKNSLYLQMNSLRAEDTAVYYCARETVMAGKALDYWGQGTLVTVSS
VL: ELVLTQSPGTLSLSPGERATLSCRASQSVSSSSLAWYQQKPGQAPRLLIYGASSRATGIPDRFSGSGSGTDFTLTISSLQPEDAATYYCQKYSSYPLTFGQGTKLEIKR
notes: Human Fab (VH+CH1, VL+CLk); tested on phage and as soluble Fab purified from E. coli; also called SL310 Fab
On to B4, for which the binding result in the assay with bovine serum albumin [3] was “no binding”; with mouse serum albumin [13] it was “binds”. For the same molecule, the EC50 (read off the curve) (as a rule, the concentration at which the effect is half-maximal) in the assay with human serum albumin [9] was ~0.1 µg/mL; in the assay with rat serum albumin [10], ~0.6 µg/mL; in the assay with human serum albumin [11], ~0.3 µg/mL; with rat serum albumin [12], ~0.2 µg/mL.

B5: SL301 (Fab, V domains shown)
VH: B4 VH
VL: ELVLTQSPGTLSLSPGERATLSCRASETVSSRQLAWYQQKPGQAPRLLIYGASSRATGIPDRFSGSGSGTDFTLTISRLEPEDSAVFYCQQYGSSPRTFGGGTKLEIKR
notes: Human Fab (VH+CH1, VL+CLk); tested on phage and as soluble Fab purified from E. coli; also called SL301 Fab
For B5, the binding result with bovine serum albumin [3] is “no binding”; with human serum albumin [4], “binds”; with rat serum albumin [7], “binds”.

B6: SA139 (Fab, V domains shown)
VH: EVQLLQSGAEVKEPGASVKVSCKASGYTFSSYGISWVRQAPGQGLEWVGRINTYNGNTGYAQRLQGRVTMTTDTSTSIAYMEVRSLRSDDTAVYYCARLGHCQRGICSDALDTWGQGTMVTVSS
VL: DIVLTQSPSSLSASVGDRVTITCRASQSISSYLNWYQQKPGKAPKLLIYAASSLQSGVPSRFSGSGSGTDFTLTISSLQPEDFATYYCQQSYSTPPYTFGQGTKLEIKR
notes: Human Fab (VH+CH1, VL+CLk); also called SA139 Fab
Consider B6, for which the binding result was “no binding” with rat serum albumin [5], “no binding” with mouse serum albumin [6], “no binding” with bovine serum albumin [14] and “binds” with human serum albumin [4].
